According to the Human Domainome abundance scans (Beltran et al. 2025):
± gives the uncertainty stated by the source.

B1: TGF-beta-activated kinase 1 and MAP3K7-binding protein 3, residues 12 to 50; numbered along this chain, Q8N5C8 (parent)
chain: VLHDLRQRFPEIPEGVVSQCMLQNNNNLEACCRALSQES

Variants of: B1
Assay: abundance fitness (aPCA) (normalised: wild type 0, dead -1); higher = more abundant; growth selection in yeast, the domain comes from the species named
Settings: Homo sapiens

Abundance fitness, by site and new letter:
E14: K -0.831 ± 0.13, V -0.24 ± 0.036, I -0.246 ± 0.064, D -0.308 ± 0.1, H 0.117 ± 0.19, G -0.829 ± 0.066, Q -0.255 ± 0.062, N -0.738 ± 0.14, P -0.143 ± 0.072, M -0.377 ± 0.11, S -0.416 ± 0.044, C -0.613 ± 0.1, F -1.02 ± 0.3, T -0.549 ± 0.093, Y -0.256 ± 0.18, L -0.142 ± 0.041, R -0.668 ± 0.052
E11: W -0.126 ± 0.05, F -0.479 ± 0.13, G -0.13 ± 0.041, K -0.535 ± 0.41, Q -0.166 ± 0.06, A -0.511 ± 0.064, S -0.189 ± 0.05, D 0.111 ± 0.069, T -0.214 ± 0.057, R -0.444 ± 0.046, M -0.213 ± 0.046, H -0.11 ± 0.11, N -0.115 ± 0.1, L -0.416 ± 0.067, V -0.726 ± 0.099, Y -0.324 ± 0.16, P -0.764 ± 0.31
C20: D 0.048 ± 0.16, R -0.405 ± 0.056, M 0.028 ± 0.082, Q -0.175 ± 0.07, P -0.51 ± 0.13, T 0.063 ± 0.087, S -0.103 ± 0.043, I 0.109 ± 0.14, Y 0.007 ± 0.28, W -0.37 ± 0.075, F -0.096 ± 0.095, A 0.173 ± 0.042, G -0.26 ± 0.039, H -0.576 ± 0.28, L -0.06 ± 0.044, E -0.082 ± 0.053
L22: D -0.06 ± 0.073, H 0.023 ± 0.055, G -0.266 ± 0.039, F -0.188 ± 0.06, K 0.264 ± 0.068, C -0.377 ± 0.079, M 0.041 ± 0.056, S -0.045 ± 0.044, E 0.164 ± 0.055, R 0.152 ± 0.041, Q 0.057 ± 0.067, A 0.173 ± 0.039
R8: L -0.168 ± 0.052, H -0.907 ± 0.4, P -1.08 ± 0.24, Q -0.73 ± 0.29, E -0.469 ± 0.077, D -0.722 ± 0.27, C -0.987 ± 0.19, K 0.054 ± 0.095, M 0.071 ± 0.092, T -0.877 ± 0.21, A -0.544 ± 0.066, I -0.403 ± 0.069, G -0.944 ± 0.065, W -0.975 ± 0.14
Q7: D -0.083 ± 0.1, N -0.225 ± 0.062, E 0.072 ± 0.046, V -0.135 ± 0.047, F -0.634 ± 0.1, M 0.064 ± 0.064, R 0.103 ± 0.038, W -1.08 ± 0.16, S 0.026 ± 0.061, K 0.003 ± 0.12, I -0.077 ± 0.07, C -0.658 ± 0.14, T -0.089 ± 0.052, G -0.413 ± 0.042, P -1.02 ± 0.17
P13: W -0.771 ± 0.088, I -0.452 ± 0.33, Q -0.62 ± 0.15, G -0.666 ± 0.046, Y -0.926 ± 0.48, R -0.782 ± 0.063, H -0.694 ± 0.14, S -0.42 ± 0.051, A -0.513 ± 0.055, T -0.767 ± 0.092, D -0.22 ± 0.074, C -0.766 ± 0.082, M -0.517 ± 0.085, V -0.774 ± 0.06, K -0.51 ± 0.086
V1: L 0.311 ± 0.09, G -0.193 ± 0.056, W -0.361 ± 0.14, D 0.022 ± 0.13, Q 0.235 ± 0.29, M 0.19 ± 0.065, F -0.228 ± 0.13, S -0.048 ± 0.12, E 0.043 ± 0.055, N 0.252 ± 0.17, A -0.38 ± 0.085, R -0.291 ± 0.4
L2: T -0.194 ± 0.14, E -0.588 ± 0.15, Q -0.276 ± 0.076, H 0.077 ± 0.1, G -0.583 ± 0.069, A -0.187 ± 0.058, W -0.134 ± 0.049, F 0.211 ± 0.12, I -0.049 ± 0.07, N -0.058 ± 0.1, V -0.531 ± 0.065, P -0.246 ± 0.27, S -0.221 ± 0.12, R -0.464 ± 0.047
H3: F -0.342 ± 0.13, R 0.088 ± 0.045, N -0.14 ± 0.24, P -0.483 ± 0.061, Q 0.266 ± 0.047, I -0.096 ± 0.18, G -0.078 ± 0.043, V -0.331 ± 0.049, D -0.066 ± 0.094, Y -0.391 ± 0.18, C -0.191 ± 0.083, M -0.023 ± 0.059, T -0.019 ± 0.045, E 0.201 ± 0.046, K 0.09 ± 0.06, S 0.066 ± 0.059
S18: H 0.177 ± 0.086, R 0.345 ± 0.035, L 0.23 ± 0.04, Q 0.268 ± 0.043, Y -0.196 ± 0.19, G -0.399 ± 0.038, A 0.13 ± 0.039, M 0.222 ± 0.045, T 0.136 ± 0.043, E 0.191 ± 0.041, P -0.939 ± 0.13, V 0.218 ± 0.039, I -0.035 ± 0.092, D -0.434 ± 0.081, F -0.17 ± 0.089, C -0.336 ± 0.092, K 0.278 ± 0.056
F9: Y -0.04 ± 0.26, G -0.818 ± 0.061, E -0.682 ± 0.057, S -0.597 ± 0.096, R -0.751 ± 0.057, M -0.428 ± 0.092, C -0.65 ± 0.067, T -0.798 ± 0.15, L -0.935 ± 0.093, I -0.784 ± 0.33, N -0.559 ± 0.17, D -0.616 ± 0.16, W -0.964 ± 0.16, V -0.865 ± 0.087, K -0.544 ± 0.13
D4: F 0.164 ± 0.097, S -0.118 ± 0.042, P -0.838 ± 0.14, E 0.248 ± 0.045, Q 0.167 ± 0.052, C -0.053 ± 0.054, L 0.116 ± 0.045, K 0.109 ± 0.049, R -0.112 ± 0.038, G -0.676 ± 0.055, W 0.017 ± 0.049, M -0.039 ± 0.14, T 0.02 ± 0.048, N -0.075 ± 0.068, V 0.127 ± 0.043, A 0.013 ± 0.051, Y -0.054 ± 0.18
P10: D -0.672 ± 0.15, L -1.16 ± 0.32, M -0.806 ± 0.39, A -0.943 ± 0.098, E -0.758 ± 0.064, K -1.07 ± 0.17, T -0.906 ± 0.17, S -0.595 ± 0.11, Q -0.956 ± 0.22, V -0.921 ± 0.076, W -0.962 ± 0.17, R -0.96 ± 0.12, G -0.78 ± 0.066
M21: S -0.718 ± 0.079, T -1.17 ± 0.3, R -0.872 ± 0.065, F -0.487 ± 0.093, P -0.68 ± 0.26, L -0.015 ± 0.043, W -0.732 ± 0.11, E -0.695 ± 0.074, V -0.349 ± 0.054, H -0.82 ± 0.19, D -0.691 ± 0.14, Y -0.189 ± 0.18, G -0.811 ± 0.072, Q -0.937 ± 0.12, A -0.347 ± 0.051
L5: D -0.191 ± 0.062, A -0.905 ± 0.094, Q -0.589 ± 0.14, V -0.896 ± 0.097, W -0.885 ± 0.14, I 0.286 ± 0.22, E -0.362 ± 0.073, S -0.914 ± 0.18, M -0.493 ± 0.074, R -0.722 ± 0.064, H -0.4 ± 0.34, K -0.532 ± 0.08
V16: F -0.71 ± 0.14, S -0.58 ± 0.074, L -0.228 ± 0.04, W -0.683 ± 0.061, R 0.032 ± 0.038, G -0.711 ± 0.059, A -0.297 ± 0.046, T -0.16 ± 0.073, H -0.372 ± 0.2, M -0.073 ± 0.052, Q -0.155 ± 0.053, C -0.638 ± 0.11, P -0.927 ± 0.17, K -0.114 ± 0.066, N -0.552 ± 0.14, E -0.105 ± 0.056, Y 0.122 ± 0.32, D -0.264 ± 0.069
G15: R 0.074 ± 0.037, Y 0.139 ± 0.065, W 0.087 ± 0.039, F -0.138 ± 0.083, I -0.154 ± 0.24, N 0.05 ± 0.059, C 0.03 ± 0.044, M -0.079 ± 0.06, V -0.016 ± 0.037, K 0.135 ± 0.056, A 0.153 ± 0.051, D 0.217 ± 0.058, P 0.003 ± 0.049, L -0.162 ± 0.041, H 0.25 ± 0.081, S 0.122 ± 0.041, E 0.281 ± 0.045
I12: W -0.737 ± 0.11, M -0.12 ± 0.059, S -0.825 ± 0.12, A -0.533 ± 0.068, G -0.981 ± 0.091, H -0.209 ± 0.17, T -0.276 ± 0.15, C -0.467 ± 0.078, Q -0.43 ± 0.073, D -1.04 ± 0.24, K -0.577 ± 0.082, V -0.042 ± 0.042, E -0.619 ± 0.076, L -0.094 ± 0.046, R -0.788 ± 0.077
R6: P -0.91 ± 0.21, H -0.036 ± 0.15, M 0.142 ± 0.056, C 0.107 ± 0.053, Q -0.19 ± 0.078, G -0.486 ± 0.041, E -0.212 ± 0.078, L 0.056 ± 0.052, V -0.211 ± 0.049, W -0.809 ± 0.14, A -0.279 ± 0.045, S -0.319 ± 0.074, K 0.11 ± 0.067, T -0.375 ± 0.098
V17: P -0.568 ± 0.14, Y -0.811 ± 0.13, G -0.795 ± 0.055, Q -0.81 ± 0.14, N -0.468 ± 0.46, S -0.815 ± 0.093, K -0.955 ± 0.14, I 0.266 ± 0.056, H -0.7 ± 0.21, M -0.395 ± 0.15, R -0.836 ± 0.059, D -0.624 ± 0.11, C -0.566 ± 0.1, A -0.647 ± 0.065, F -0.65 ± 0.26, T -1.07 ± 0.2, L 0.084 ± 0.042
Q19: N -0.019 ± 0.1, A 0.186 ± 0.04, Y -0.345 ± 0.086, S -0.039 ± 0.045, T -0.077 ± 0.059, W -0.135 ± 0.052, I 0.384 ± 0.15, H -0.175 ± 0.12, L -0.1 ± 0.049, P -0.547 ± 0.18, C -0.114 ± 0.14, V -0.273 ± 0.047, E 0.128 ± 0.045, K 0.139 ± 0.049, M -0.004 ± 0.07, R 0.135 ± 0.037
